Test results from the Human Domainome abundance scans (Beltran et al. 2025).
± gives the uncertainty stated by the source.

B1: POU domain, class 3, transcription factor 1, residues 247 to 324; numbered along this chain, Q03052 (parent)
chain: EDAPSSDDLEQFAKQFKQRRIKLGFTQADVGLALGTLYGNVFSQTTICRFEALQLSFKNMCKLKPLLNKWLEETDSSS

Variants of: B1
Assay: abundance fitness (aPCA) (normalised: wild type 0, dead -1); higher = more abundant; growth selection in yeast, the domain comes from the species named
Conditions: Homo sapiens

Variant | abundance fitness
EDAPSSDDDEQFAKQFKQRRIKLGFTQADVGLALGTLYGNVFSQTTICRFEALQLSFKNMCKLKPLLNKWLEETDSSS [L9D] | -0.678 ± 0.29
EDAPSSDDGEQFAKQFKQRRIKLGFTQADVGLALGTLYGNVFSQTTICRFEALQLSFKNMCKLKPLLNKWLEETDSSS [L9G] | -0.651 ± 0.11
EDAPSSDDFEQFAKQFKQRRIKLGFTQADVGLALGTLYGNVFSQTTICRFEALQLSFKNMCKLKPLLNKWLEETDSSS [L9F] | -0.098 ± 0.13
EDAPSSDDEEQFAKQFKQRRIKLGFTQADVGLALGTLYGNVFSQTTICRFEALQLSFKNMCKLKPLLNKWLEETDSSS [L9E] | -0.54 ± 0.18
EDAPSSDDHEQFAKQFKQRRIKLGFTQADVGLALGTLYGNVFSQTTICRFEALQLSFKNMCKLKPLLNKWLEETDSSS [L9H] | -0.645 ± 0.31
EDAPSSDDIEQFAKQFKQRRIKLGFTQADVGLALGTLYGNVFSQTTICRFEALQLSFKNMCKLKPLLNKWLEETDSSS [L9I] | -0.398 ± 0.21
EDAPSSDDPEQFAKQFKQRRIKLGFTQADVGLALGTLYGNVFSQTTICRFEALQLSFKNMCKLKPLLNKWLEETDSSS [L9P] | -0.68 ± 0.24
EDAPSSDDKEQFAKQFKQRRIKLGFTQADVGLALGTLYGNVFSQTTICRFEALQLSFKNMCKLKPLLNKWLEETDSSS [L9K] | -0.399 ± 0.21
EDAPSSDDCEQFAKQFKQRRIKLGFTQADVGLALGTLYGNVFSQTTICRFEALQLSFKNMCKLKPLLNKWLEETDSSS [L9C] | -0.606 ± 0.24
EDAPSSDDMEQFAKQFKQRRIKLGFTQADVGLALGTLYGNVFSQTTICRFEALQLSFKNMCKLKPLLNKWLEETDSSS [L9M] | -0.084 ± 0.11
EDAPSSDDAEQFAKQFKQRRIKLGFTQADVGLALGTLYGNVFSQTTICRFEALQLSFKNMCKLKPLLNKWLEETDSSS [L9A] | -0.532 ± 0.11
EDAPSSDDQEQFAKQFKQRRIKLGFTQADVGLALGTLYGNVFSQTTICRFEALQLSFKNMCKLKPLLNKWLEETDSSS [L9Q] | -0.355 ± 0.1
EDAPTSDDLEQFAKQFKQRRIKLGFTQADVGLALGTLYGNVFSQTTICRFEALQLSFKNMCKLKPLLNKWLEETDSSS [S5T] | 0.09 ± 0.081
EDAPYSDDLEQFAKQFKQRRIKLGFTQADVGLALGTLYGNVFSQTTICRFEALQLSFKNMCKLKPLLNKWLEETDSSS [S5Y] | -0.062 ± 0.15
EDAPRSDDLEQFAKQFKQRRIKLGFTQADVGLALGTLYGNVFSQTTICRFEALQLSFKNMCKLKPLLNKWLEETDSSS [S5R] | 0.164 ± 0.046
EDAPQSDDLEQFAKQFKQRRIKLGFTQADVGLALGTLYGNVFSQTTICRFEALQLSFKNMCKLKPLLNKWLEETDSSS [S5Q] | 0.042 ± 0.097
EDAPWSDDLEQFAKQFKQRRIKLGFTQADVGLALGTLYGNVFSQTTICRFEALQLSFKNMCKLKPLLNKWLEETDSSS [S5W] | -0.206 ± 0.08
EDAPVSDDLEQFAKQFKQRRIKLGFTQADVGLALGTLYGNVFSQTTICRFEALQLSFKNMCKLKPLLNKWLEETDSSS [S5V] | 0.045 ± 0.062
EDAPPSDDLEQFAKQFKQRRIKLGFTQADVGLALGTLYGNVFSQTTICRFEALQLSFKNMCKLKPLLNKWLEETDSSS [S5P] | 0.067 ± 0.097
EDAPSSDKLEQFAKQFKQRRIKLGFTQADVGLALGTLYGNVFSQTTICRFEALQLSFKNMCKLKPLLNKWLEETDSSS [D8K] | -0.397 ± 0.16
EDAPSSDVLEQFAKQFKQRRIKLGFTQADVGLALGTLYGNVFSQTTICRFEALQLSFKNMCKLKPLLNKWLEETDSSS [D8V] | -0.217 ± 0.069
EDAPSSDGLEQFAKQFKQRRIKLGFTQADVGLALGTLYGNVFSQTTICRFEALQLSFKNMCKLKPLLNKWLEETDSSS [D8G] | -0.095 ± 0.061
EDAPSSDALEQFAKQFKQRRIKLGFTQADVGLALGTLYGNVFSQTTICRFEALQLSFKNMCKLKPLLNKWLEETDSSS [D8A] | -0.183 ± 0.079
EDAPSSDTLEQFAKQFKQRRIKLGFTQADVGLALGTLYGNVFSQTTICRFEALQLSFKNMCKLKPLLNKWLEETDSSS [D8T] | -0.454 ± 0.18

Variant | abundance fitness
EDAPSSDFLEQFAKQFKQRRIKLGFTQADVGLALGTLYGNVFSQTTICRFEALQLSFKNMCKLKPLLNKWLEETDSSS [D8F] | -0.481 ± 0.41
EDAPSSDQLEQFAKQFKQRRIKLGFTQADVGLALGTLYGNVFSQTTICRFEALQLSFKNMCKLKPLLNKWLEETDSSS [D8Q] | -0.25 ± 0.12
EDAPSSDMLEQFAKQFKQRRIKLGFTQADVGLALGTLYGNVFSQTTICRFEALQLSFKNMCKLKPLLNKWLEETDSSS [D8M] | 0.014 ± 0.14
EDAPSSDRLEQFAKQFKQRRIKLGFTQADVGLALGTLYGNVFSQTTICRFEALQLSFKNMCKLKPLLNKWLEETDSSS [D8R] | -0.179 ± 0.07
EDAPSSDELEQFAKQFKQRRIKLGFTQADVGLALGTLYGNVFSQTTICRFEALQLSFKNMCKLKPLLNKWLEETDSSS [D8E] | -0.076 ± 0.085
EDAPSSDHLEQFAKQFKQRRIKLGFTQADVGLALGTLYGNVFSQTTICRFEALQLSFKNMCKLKPLLNKWLEETDSSS [D8H] | -0.276 ± 0.41
EDAPSSDYLEQFAKQFKQRRIKLGFTQADVGLALGTLYGNVFSQTTICRFEALQLSFKNMCKLKPLLNKWLEETDSSS [D8Y] | -0.826 ± 0.43
EDAPSSDILEQFAKQFKQRRIKLGFTQADVGLALGTLYGNVFSQTTICRFEALQLSFKNMCKLKPLLNKWLEETDSSS [D8I] | -0.529 ± 0.28
EDAPSSDSLEQFAKQFKQRRIKLGFTQADVGLALGTLYGNVFSQTTICRFEALQLSFKNMCKLKPLLNKWLEETDSSS [D8S] | -0.415 ± 0.099
EDAPSSDCLEQFAKQFKQRRIKLGFTQADVGLALGTLYGNVFSQTTICRFEALQLSFKNMCKLKPLLNKWLEETDSSS [D8C] | -0.358 ± 0.17
EDAPSSDNLEQFAKQFKQRRIKLGFTQADVGLALGTLYGNVFSQTTICRFEALQLSFKNMCKLKPLLNKWLEETDSSS [D8N] | -0.294 ± 0.2
EDAPSSDLLEQFAKQFKQRRIKLGFTQADVGLALGTLYGNVFSQTTICRFEALQLSFKNMCKLKPLLNKWLEETDSSS [D8L] | -0.491 ± 0.15
EDAPSSFDLEQFAKQFKQRRIKLGFTQADVGLALGTLYGNVFSQTTICRFEALQLSFKNMCKLKPLLNKWLEETDSSS [D7F] | -0.616 ± 0.22
EDAPSSMDLEQFAKQFKQRRIKLGFTQADVGLALGTLYGNVFSQTTICRFEALQLSFKNMCKLKPLLNKWLEETDSSS [D7M] | -0.153 ± 0.1
EDAPSSPDLEQFAKQFKQRRIKLGFTQADVGLALGTLYGNVFSQTTICRFEALQLSFKNMCKLKPLLNKWLEETDSSS [D7P] | -0.642 ± 0.23
EDAPSSRDLEQFAKQFKQRRIKLGFTQADVGLALGTLYGNVFSQTTICRFEALQLSFKNMCKLKPLLNKWLEETDSSS [D7R] | -0.085 ± 0.058
EDAPSSKDLEQFAKQFKQRRIKLGFTQADVGLALGTLYGNVFSQTTICRFEALQLSFKNMCKLKPLLNKWLEETDSSS [D7K] | 0.358 ± 0.14
EDAPSSNDLEQFAKQFKQRRIKLGFTQADVGLALGTLYGNVFSQTTICRFEALQLSFKNMCKLKPLLNKWLEETDSSS [D7N] | -0.305 ± 0.36
EDAPSSYDLEQFAKQFKQRRIKLGFTQADVGLALGTLYGNVFSQTTICRFEALQLSFKNMCKLKPLLNKWLEETDSSS [D7Y] | 0.101 ± 0.12
EDAPSSCDLEQFAKQFKQRRIKLGFTQADVGLALGTLYGNVFSQTTICRFEALQLSFKNMCKLKPLLNKWLEETDSSS [D7C] | -0.316 ± 0.15
EDAPSSADLEQFAKQFKQRRIKLGFTQADVGLALGTLYGNVFSQTTICRFEALQLSFKNMCKLKPLLNKWLEETDSSS [D7A] | -0.142 ± 0.081
EDAPSSGDLEQFAKQFKQRRIKLGFTQADVGLALGTLYGNVFSQTTICRFEALQLSFKNMCKLKPLLNKWLEETDSSS [D7G] | -0.045 ± 0.057
EDAPSSSDLEQFAKQFKQRRIKLGFTQADVGLALGTLYGNVFSQTTICRFEALQLSFKNMCKLKPLLNKWLEETDSSS [D7S] | -0.477 ± 0.13
EDAPSSTDLEQFAKQFKQRRIKLGFTQADVGLALGTLYGNVFSQTTICRFEALQLSFKNMCKLKPLLNKWLEETDSSS [D7T] | -0.073 ± 0.11

Variant | abundance fitness
EDAPSSWDLEQFAKQFKQRRIKLGFTQADVGLALGTLYGNVFSQTTICRFEALQLSFKNMCKLKPLLNKWLEETDSSS [D7W] | -0.427 ± 0.11
EDAPSSEDLEQFAKQFKQRRIKLGFTQADVGLALGTLYGNVFSQTTICRFEALQLSFKNMCKLKPLLNKWLEETDSSS [D7E] | 0.089 ± 0.08
EDAPSSHDLEQFAKQFKQRRIKLGFTQADVGLALGTLYGNVFSQTTICRFEALQLSFKNMCKLKPLLNKWLEETDSSS [D7H] | -0.361 ± 0.37
EDAPSSVDLEQFAKQFKQRRIKLGFTQADVGLALGTLYGNVFSQTTICRFEALQLSFKNMCKLKPLLNKWLEETDSSS [D7V] | -0.181 ± 0.071
EDAPSSQDLEQFAKQFKQRRIKLGFTQADVGLALGTLYGNVFSQTTICRFEALQLSFKNMCKLKPLLNKWLEETDSSS [D7Q] | -0.138 ± 0.15
EDAPSPDDLEQFAKQFKQRRIKLGFTQADVGLALGTLYGNVFSQTTICRFEALQLSFKNMCKLKPLLNKWLEETDSSS [S6P] | 0.162 ± 0.11
EDAPSMDDLEQFAKQFKQRRIKLGFTQADVGLALGTLYGNVFSQTTICRFEALQLSFKNMCKLKPLLNKWLEETDSSS [S6M] | 0.473 ± 0.07
EDAPSNDDLEQFAKQFKQRRIKLGFTQADVGLALGTLYGNVFSQTTICRFEALQLSFKNMCKLKPLLNKWLEETDSSS [S6N] | 0.178 ± 0.11
EDAPSGDDLEQFAKQFKQRRIKLGFTQADVGLALGTLYGNVFSQTTICRFEALQLSFKNMCKLKPLLNKWLEETDSSS [S6G] | 0.321 ± 0.041
EDAPSFDDLEQFAKQFKQRRIKLGFTQADVGLALGTLYGNVFSQTTICRFEALQLSFKNMCKLKPLLNKWLEETDSSS [S6F] | 0.355 ± 0.15
EDAPSQDDLEQFAKQFKQRRIKLGFTQADVGLALGTLYGNVFSQTTICRFEALQLSFKNMCKLKPLLNKWLEETDSSS [S6Q] | 0.436 ± 0.087
EDAPSYDDLEQFAKQFKQRRIKLGFTQADVGLALGTLYGNVFSQTTICRFEALQLSFKNMCKLKPLLNKWLEETDSSS [S6Y] | 0.043 ± 0.45
EDAPSRDDLEQFAKQFKQRRIKLGFTQADVGLALGTLYGNVFSQTTICRFEALQLSFKNMCKLKPLLNKWLEETDSSS [S6R] | 0.365 ± 0.047
EDAPSWDDLEQFAKQFKQRRIKLGFTQADVGLALGTLYGNVFSQTTICRFEALQLSFKNMCKLKPLLNKWLEETDSSS [S6W] | 0.405 ± 0.063
EDAPSCDDLEQFAKQFKQRRIKLGFTQADVGLALGTLYGNVFSQTTICRFEALQLSFKNMCKLKPLLNKWLEETDSSS [S6C] | 0.398 ± 0.14
EDAPSEDDLEQFAKQFKQRRIKLGFTQADVGLALGTLYGNVFSQTTICRFEALQLSFKNMCKLKPLLNKWLEETDSSS [S6E] | 0.223 ± 0.069
EDAPSDDDLEQFAKQFKQRRIKLGFTQADVGLALGTLYGNVFSQTTICRFEALQLSFKNMCKLKPLLNKWLEETDSSS [S6D] | 0.125 ± 0.096
EDAPSHDDLEQFAKQFKQRRIKLGFTQADVGLALGTLYGNVFSQTTICRFEALQLSFKNMCKLKPLLNKWLEETDSSS [S6H] | 0.308 ± 0.14
EDAPSTDDLEQFAKQFKQRRIKLGFTQADVGLALGTLYGNVFSQTTICRFEALQLSFKNMCKLKPLLNKWLEETDSSS [S6T] | 0.38 ± 0.084
EDAPSIDDLEQFAKQFKQRRIKLGFTQADVGLALGTLYGNVFSQTTICRFEALQLSFKNMCKLKPLLNKWLEETDSSS [S6I] | 0.346 ± 0.13
EDAPSADDLEQFAKQFKQRRIKLGFTQADVGLALGTLYGNVFSQTTICRFEALQLSFKNMCKLKPLLNKWLEETDSSS [S6A] | 0.427 ± 0.051
EDAPSKDDLEQFAKQFKQRRIKLGFTQADVGLALGTLYGNVFSQTTICRFEALQLSFKNMCKLKPLLNKWLEETDSSS [S6K] | 0.49 ± 0.067
